Experimental data from doi:10.1101/2022.06.29.498065v2.

Test system: Nc1ncnc2c1ncn2[C@@H]1O[C@H](COP(=O)(O)OP(=O)(O)OP(=O)(O)O)[C@@H](O)[C@H]1O
Assay: purified protein
Conditions: pH 7.0; 30.0 °C

**Q.** How did the Km turn out when “KFDV NS5 (Kyasanur Forest disease virus)” was run?
**A.** 42.15 ± 5.81 µM
